Laboratory results from paper PMC11867700, “TANGO2 is an acyl-CoA binding protein” (The Journal of Cell Biology, 2025).

Molecular target: the molecule itself
Assay: mass photometry; purified TANGO2.Flag; mass distribution; conditions not described

B1: TANGO2 isoform 1-Flag (TANGO2.Iso1-Flag), purified (natural protein, human, UniProt Q6ICL3-1 1-276, looked up)
chain: MCIIFFKFDPRPVSKNAYRLILAANRDEFYSRPSKLADFWGNNNEILSGLDMEEGKEGGTWLGISTRGKLAALTNYLQPQLDWQARGRGELVTHFLTTDVDSLSYLKKVSMEGHLYNGFNLIAADLSTAKGDVICYYGNRGEPDPIVLTPGTYGLSNALLETPWRKLCFGKQLFLEAVERSQALPKDVLIASLLDVLNNEEAQLPDPAIEDQGGEYVQPMLSKYAAVCVRCPGYGTRTNTIILVDADGHVTFTERSMMDKDLSHWETRTYEFTLQS
notes: TANGO2 isoform 1, human, UniProt Q6ICL3-1; C-terminal in-frame fusion with the Flag peptide; also called TANGO2.Flag; purified TANGO2
Does B1 bind?
Result: binds
